Columns and labels:
Assay in all cases: cell-based or functional assay
[1] = target: prolyl hydroxylase domain 2 (UniProt Q9GZT9 1-426)
[2] = target: T1, KDM2A (human, UniProt Q9Y2K7 1-1162)
T1 sequence (looked up): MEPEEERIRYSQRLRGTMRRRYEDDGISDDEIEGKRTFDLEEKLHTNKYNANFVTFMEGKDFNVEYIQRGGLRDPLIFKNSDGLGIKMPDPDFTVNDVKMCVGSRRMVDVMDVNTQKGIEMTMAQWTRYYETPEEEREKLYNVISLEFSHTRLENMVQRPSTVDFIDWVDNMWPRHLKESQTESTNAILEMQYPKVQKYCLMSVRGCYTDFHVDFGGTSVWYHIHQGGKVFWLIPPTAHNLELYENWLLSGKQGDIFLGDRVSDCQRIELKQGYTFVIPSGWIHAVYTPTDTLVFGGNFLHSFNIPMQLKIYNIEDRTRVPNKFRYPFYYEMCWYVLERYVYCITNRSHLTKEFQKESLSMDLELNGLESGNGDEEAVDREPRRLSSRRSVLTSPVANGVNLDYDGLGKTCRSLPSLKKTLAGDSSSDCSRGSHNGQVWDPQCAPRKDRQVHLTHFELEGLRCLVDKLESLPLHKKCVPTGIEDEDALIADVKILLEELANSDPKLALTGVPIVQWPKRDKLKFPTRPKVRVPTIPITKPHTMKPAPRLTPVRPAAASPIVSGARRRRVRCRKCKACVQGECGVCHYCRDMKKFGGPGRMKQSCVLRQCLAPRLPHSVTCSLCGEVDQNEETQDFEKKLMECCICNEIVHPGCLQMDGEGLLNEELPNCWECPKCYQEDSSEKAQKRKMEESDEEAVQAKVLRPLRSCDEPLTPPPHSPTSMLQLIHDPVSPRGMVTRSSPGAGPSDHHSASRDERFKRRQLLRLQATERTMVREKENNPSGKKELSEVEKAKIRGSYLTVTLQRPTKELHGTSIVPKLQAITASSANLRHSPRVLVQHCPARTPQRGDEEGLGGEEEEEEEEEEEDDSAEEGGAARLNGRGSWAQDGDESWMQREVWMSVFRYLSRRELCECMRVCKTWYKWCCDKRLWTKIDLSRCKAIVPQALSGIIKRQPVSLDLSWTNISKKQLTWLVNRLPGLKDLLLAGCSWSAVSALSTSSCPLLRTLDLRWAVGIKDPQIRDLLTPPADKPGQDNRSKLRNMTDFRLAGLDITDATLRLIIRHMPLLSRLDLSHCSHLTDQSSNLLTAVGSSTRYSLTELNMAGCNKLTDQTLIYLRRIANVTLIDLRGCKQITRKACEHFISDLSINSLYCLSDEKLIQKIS

[3] = target: KDM5C (human, UniProt P41229 1-1560)
Chain of KDM5C (P41229 whole entry): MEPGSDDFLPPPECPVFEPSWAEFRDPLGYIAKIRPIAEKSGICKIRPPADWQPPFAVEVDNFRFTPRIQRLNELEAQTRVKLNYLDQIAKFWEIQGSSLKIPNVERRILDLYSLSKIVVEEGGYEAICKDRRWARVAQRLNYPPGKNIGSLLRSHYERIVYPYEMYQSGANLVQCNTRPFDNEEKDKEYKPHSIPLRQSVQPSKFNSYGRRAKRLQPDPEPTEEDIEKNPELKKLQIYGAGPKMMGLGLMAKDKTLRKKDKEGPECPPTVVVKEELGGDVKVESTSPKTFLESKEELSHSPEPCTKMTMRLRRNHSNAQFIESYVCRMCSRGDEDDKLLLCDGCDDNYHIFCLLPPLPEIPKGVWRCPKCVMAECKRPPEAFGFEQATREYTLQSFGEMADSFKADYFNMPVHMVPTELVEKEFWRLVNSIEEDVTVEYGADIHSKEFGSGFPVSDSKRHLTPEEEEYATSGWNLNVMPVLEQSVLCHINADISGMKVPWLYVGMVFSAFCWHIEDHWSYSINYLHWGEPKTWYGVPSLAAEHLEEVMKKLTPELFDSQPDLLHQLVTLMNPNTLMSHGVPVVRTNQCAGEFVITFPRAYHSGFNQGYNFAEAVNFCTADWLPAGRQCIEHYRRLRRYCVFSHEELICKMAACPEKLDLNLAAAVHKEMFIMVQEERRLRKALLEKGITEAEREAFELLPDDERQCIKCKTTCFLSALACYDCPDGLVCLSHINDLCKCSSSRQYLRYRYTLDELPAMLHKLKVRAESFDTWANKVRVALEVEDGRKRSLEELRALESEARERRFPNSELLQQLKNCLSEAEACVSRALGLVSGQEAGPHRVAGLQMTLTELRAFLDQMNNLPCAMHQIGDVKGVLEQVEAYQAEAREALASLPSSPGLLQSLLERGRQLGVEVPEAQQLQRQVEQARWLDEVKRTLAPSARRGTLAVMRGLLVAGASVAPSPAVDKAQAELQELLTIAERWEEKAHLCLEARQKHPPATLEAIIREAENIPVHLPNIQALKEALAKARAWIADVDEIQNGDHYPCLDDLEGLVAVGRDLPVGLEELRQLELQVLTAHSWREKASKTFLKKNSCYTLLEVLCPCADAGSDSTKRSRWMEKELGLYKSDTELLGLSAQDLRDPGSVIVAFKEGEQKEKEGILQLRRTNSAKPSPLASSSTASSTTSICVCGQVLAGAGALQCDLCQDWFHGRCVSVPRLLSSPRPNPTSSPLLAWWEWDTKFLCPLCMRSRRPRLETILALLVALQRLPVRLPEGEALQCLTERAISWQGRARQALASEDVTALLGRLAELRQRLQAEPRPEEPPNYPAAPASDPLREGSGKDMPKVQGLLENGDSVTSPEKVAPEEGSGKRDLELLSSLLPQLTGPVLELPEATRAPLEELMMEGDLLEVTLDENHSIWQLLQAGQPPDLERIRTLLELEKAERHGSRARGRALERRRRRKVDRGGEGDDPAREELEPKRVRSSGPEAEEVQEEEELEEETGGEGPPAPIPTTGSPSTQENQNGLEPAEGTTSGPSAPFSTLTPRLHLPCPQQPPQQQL

[4] = target: KDM1A (human, UniProt O60341 1-852)

Chain of prolyl hydroxylase domain 2 (Q9GZT9 whole entry, the tested form may be a part): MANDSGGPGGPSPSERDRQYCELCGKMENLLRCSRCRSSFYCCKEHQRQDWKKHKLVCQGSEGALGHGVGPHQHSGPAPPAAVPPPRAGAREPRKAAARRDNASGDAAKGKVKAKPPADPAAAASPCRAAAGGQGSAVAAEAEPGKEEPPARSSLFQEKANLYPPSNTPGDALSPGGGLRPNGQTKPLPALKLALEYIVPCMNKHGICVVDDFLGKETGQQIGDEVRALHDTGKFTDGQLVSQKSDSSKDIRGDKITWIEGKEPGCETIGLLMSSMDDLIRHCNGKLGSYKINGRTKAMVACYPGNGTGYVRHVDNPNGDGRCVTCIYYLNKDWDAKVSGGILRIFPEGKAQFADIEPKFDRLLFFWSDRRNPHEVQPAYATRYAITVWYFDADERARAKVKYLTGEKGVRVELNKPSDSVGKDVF

- IC50 of inhibition of PHD2 (MALDI–TOF MS assay) [1]: > 1000 µM
- IC50 of inhibition of demethylase activity (AlphaScreen activity assay) [2]: > 10 µM
- IC50 of inhibition of demethylase activity (AlphaScreen activity assay) [3]: > 10 µM
- IC50 of inhibition of KDM1A/LSD1 (fluorescence-based assay) [4]: > 10 µM
B1: CP4 (peptide)
chain: YLKSRRSGLTWIPC
modifications: not fully specified; N-terminal L-Tyr (^LTyr library, N-chloroacetyl-L-Tyr) cyclised by a thioether to a downstream cysteine

From article PMC5384220, “Highly selective inhibition of histone demethylases by de novo macrocyclic peptides” (Nature Communications, 2017)
